In the supplement of paper PMC10567573:

B1: HESX1 (parent)
chain: HVPNPPSGISFPSVVDHPMPEERA

Variants of: B1
Experiment: protein stability index of a GFP-peptide fusion (GPS, HEK-293T) (PSI 1-6); higher = more stable
Conditions: c terminus: a fixed tail appended
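Also: lentivirally expressed fusions sorted by FACS into six bins by GFP to DsRed ratio, PSI derived from sequencing read proportions per bin multiplied by bin number.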

Going from HVPNPTSGISFPSVVDHPMPEERA [P6T] to HVPNPISGISFPSVVDHPMPEERA [P6I], the protein stability index rises from 2.13 to 2.24.

Compared with HVPNPSSGISFPSVVDHPMPEERA [P6S], HVPNPPDGISFPSVVDHPMPEERA [S7D] is higher in protein stability index: 2.4 for the first, 2.8 for the second.

Compared with HVPNPPYGISFPSVVDHPMPEERA [S7Y], HVPNPPSGISFPSVVDHKMPEERA [P18K] is higher in protein stability index: 2.04 for the first, 2.7 for the second.

Compared with HVPNPPSGISFPSVVDHQMPEERA [P18Q], HVPNPPSGISFPSVVDHWMPEERA [P18W] is lower in protein stability index: 2.61 for the first, 2.28 for the second.

Going from HVPNPPSGISFPSVVDAPMPEERA [H17A] to HVPGPPSGISFPSVVDHPMPEERA [N4G], the protein stability index falls from 3.2 to 1.66.

Compared with HVPFPPSGISFPSVVDHPMPEERA [N4F], HVPCPPSGISFPSVVDHPMPEERA [N4C] is lower in protein stability index: 3.47 for the first, 2.23 for the second.

Compared with HVPSPPSGISFPSVVDHPMPEERA [N4S], HVPRPPSGISFPSVVDHPMPEERA [N4R] is higher in protein stability index: 2.24 for the first, 4.18 for the second.

First: HVPEPPSGISFPSVVDHPMPEERA [N4E]
Second: HVPNPPSGISFPSVVDHPMPKERA [E21K]
The protein stability index of the first is higher: 3.8 for the first, 1.89 for the second.

First: HVPNPPSGISFPSVVDHPMPRERA [E21R]
Second: HVPNPPSGISFPSVVDHPMPHERA [E21H]
The protein stability index of the first is higher: 2.52 for the first, 2.45 for the second.

Going from HVPNPPSGISFPSVVNHPMPEERA [D16N] to HVPNPPSGISFPSVVFHPMPEERA [D16F], the protein stability index falls from 2 to 1.9.

First: HVPNPPSGISFPSVVRHPMPEERA [D16R]
Second: HVPNPPSGISFPSVVDHPMQEERA [P20Q]
The protein stability index of the first is lower: 2.51 for the first, 2.78 for the second.

Compared with HVPNPPSGISQPSVVDHPMPEERA [F11Q], HVPNPPSGISGPSVVDHPMPEERA [F11G] is lower in protein stability index: 4.83 for the first, 4.65 for the second.

First: HVPNPPSGISHPSVVDHPMPEERA [F11H]
Second: HVPNPPSGISEPSVVDHPMPEERA [F11E]
The protein stability index of the first is lower: 4.48 for the first, 5.4 for the second.

Going from HVPNPPSGISKPSVVDHPMPEERA [F11K] to HVPNPPSGISAPSVVDHPMPEERA [F11A], the protein stability index falls from 5.12 to 5.

First: HVPNPPSGISVPSVVDHPMPEERA [F11V]
Second: HVPNPPSGISFFSVVDHPMPEERA [P12F]
The protein stability index of the first is higher: 4.42 for the first, 1.75 for the second.

First: HVPNPPSGISFKSVVDHPMPEERA [P12K]
Second: HVPNPPSGISFESVVDHPMPEERA [P12E]
The protein stability index of the first is lower: 3.83 for the first, 4.57 for the second.

First: HVPNPPSGISFGSVVDHPMPEERA [P12G]
Second: AVPNPPSGISFPSVVDHPMPEERA [H1A]
The protein stability index of the first is lower: 3.82 for the first, 5.22 for the second.

Compared with LVPNPPSGISFPSVVDHPMPEERA [H1L], KVPNPPSGISFPSVVDHPMPEERA [H1K] is higher in protein stability index: 4.51 for the first, 4.82 for the second.

Compared with RVPNPPSGISFPSVVDHPMPEERA [H1R], WVPNPPSGISFPSVVDHPMPEERA [H1W] is lower in protein stability index: 4.62 for the first, 4.33 for the second.

Going from HVFNPPSGISFPSVVDHPMPEERA [P3F] to HVRNPPSGISFPSVVDHPMPEERA [P3R], the protein stability index falls from 3.85 to 2.27.

First: HVMNPPSGISFPSVVDHPMPEERA [P3M]
Second: HVPNPPSGISFPSVPDHPMPEERA [V15P]
The protein stability index of the first is higher: 4.21 for the first, 3.06 for the second.

First: HVPNPPSGISFPSVIDHPMPEERA [V15I]
Second: HVPNPPSGISFPSMVDHPMPEERA [V14M]
The protein stability index of the first is higher: 3.16 for the first, 3.1 for the second.

Going from HVPNPPSGISFPSWVDHPMPEERA [V14W] to HVPNPPSGISFPSYVDHPMPEERA [V14Y], the protein stability index falls from 3.59 to 3.21.

Going from HVPNPPSGISFPSSVDHPMPEERA [V14S] to HVPNPPSGISFPSDVDHPMPEERA [V14D], the protein stability index rises from 3.52 to 4.63.

Compared with HVPNPPSGISFPAVVDHPMPEERA [S13A], HVPNPPSGISFPEVVDHPMPEERA [S13E] is higher in protein stability index: 2.55 for the first, 3.65 for the second.

Compared with HVPNPPSGISFPQVVDHPMPEERA [S13Q], HVPNPPSGISFPMVVDHPMPEERA [S13M] is lower in protein stability index: 2.71 for the first, 2.08 for the second.

First: HVPNPPSGISFPGVVDHPMPEERA [S13G]
Second: HVPNPPSGISFPYVVDHPMPEERA [S13Y]
The protein stability index of the first is higher: 2.81 for the first, 1.94 for the second.

First: HVPNPPSGISFPIVVDHPMPEERA [S13I]
Second: HVPNPPSGISFPSVVDHPMPEERV [A24V]
The protein stability index of the first is lower: 2.58 for the first, 2.98 for the second.

Compared with HVPNPPSGISFPSVVDHPMPERRA [E22R], HVPNPPSGISFPSVVDHPMPESRA [E22S] is higher in protein stability index: 2.26 for the first, 2.3 for the second.

Compared with HVPNPPSGISFPSVVDHPMPEARA [E22A], HVPNPPSGISFPSVVDHPMPEPRA [E22P] is lower in protein stability index: 2.72 for the first, 2.17 for the second.

Going from HVPNPPSGISFPSVVDHPMPEYRA [E22Y] to HVPNPPSGISFPSVVDHPMPELRA [E22L], the protein stability index falls from 2.68 to 1.94.

First: HVPNPPSGISFPSVVDHPMPECRA [E22C]
Second: HVPNPPSGISFPSVVDHPMPEEFA [R23F]
The protein stability index of the first is higher: 2.15 for the first, 2.11 for the second.

Compared with HVPNPPSGISFPSVVDHPMPEEDA [R23D], HVPNPPSGISFPSVVDHPMPEEWA [R23W] is lower in protein stability index: 3 for the first, 2.37 for the second.

Going from HVPNPPSVISFPSVVDHPMPEERA [G8V] to HVPNPPSMISFPSVVDHPMPEERA [G8M], the protein stability index falls from 2.87 to 2.59.

First: HVPNPPSEISFPSVVDHPMPEERA [G8E]
Second: HVPNPPSSISFPSVVDHPMPEERA [G8S]
The protein stability index of the first is lower: 3.01 for the first, 3.03 for the second.

Going from HHPNPPSGISFPSVVDHPMPEERA [V2H] to HQPNPPSGISFPSVVDHPMPEERA [V2Q], the protein stability index rises from 4.86 to 5.26.

Compared with HKPNPPSGISFPSVVDHPMPEERA [V2K], HDPNPPSGISFPSVVDHPMPEERA [V2D] is higher in protein stability index: 5 for the first, 5.52 for the second.

First: HAPNPPSGISFPSVVDHPMPEERA [V2A]
Second: HVPNPPSGIQFPSVVDHPMPEERA [S10Q]
The protein stability index of the first is higher: 4.97 for the first, 2.42 for the second.

First: HVPNPPSGIEFPSVVDHPMPEERA [S10E]
Second: HVPNPPSGIFFPSVVDHPMPEERA [S10F]
The protein stability index of the first is higher: 3.39 for the first, 2.61 for the second.

First: HVPNPPSGIRFPSVVDHPMPEERA [S10R]
Second: HVPNPPSGIGFPSVVDHPMPEERA [S10G]
The protein stability index of the first is lower: 2.03 for the first, 2.25 for the second.

Going from HVPNPPSGIHFPSVVDHPMPEERA [S10H] to HVPNPPSGIDFPSVVDHPMPEERA [S10D], the protein stability index rises from 2.81 to 3.77.

Compared with HVPNPPSGISFPSVVDHPNPEERA [M19N], HVPNPPSGISFPSVVDHPFPEERA [M19F] is lower in protein stability index: 2.97 for the first, 2.65 for the second.

Compared with HVPNPPSGISFPSVVDHPKPEERA [M19K], HVPNPPSGISFPSVVDHPWPEERA [M19W] is lower in protein stability index: 3.31 for the first, 2.29 for the second.

Going from HVPNPPSGISFPSVVDHPHPEERA [M19H] to HVPNPPSGISFPSVVDHPCPEERA [M19C], the protein stability index falls from 3.03 to 2.37.

First: HVPNIPSGISFPSVVDHPMPEERA [P5I]
Second: HVPNMPSGISFPSVVDHPMPEERA [P5M]
The protein stability index of the first is higher: 3.02 for the first, 2.95 for the second.

Compared with HVPNLPSGISFPSVVDHPMPEERA [P5L], HVPNRPSGISFPSVVDHPMPEERA [P5R] is higher in protein stability index: 2.53 for the first, 3.28 for the second.

Going from HVPNGPSGISFPSVVDHPMPEERA [P5G] to HVPNWPSGISFPSVVDHPMPEERA [P5W], the protein stability index rises from 1.93 to 2.39.
